Laboratory results from article PMC7015813 (Nature structural & molecular biology, 2020).
Where a chain is given by its changes, count along the chain named. Names and notes keep the numbering of the source.

T1: WT core mouse RAG1 (aa 384-1008) (mouse, UniProt P15919 384-1008)
T1 sequence (looked up): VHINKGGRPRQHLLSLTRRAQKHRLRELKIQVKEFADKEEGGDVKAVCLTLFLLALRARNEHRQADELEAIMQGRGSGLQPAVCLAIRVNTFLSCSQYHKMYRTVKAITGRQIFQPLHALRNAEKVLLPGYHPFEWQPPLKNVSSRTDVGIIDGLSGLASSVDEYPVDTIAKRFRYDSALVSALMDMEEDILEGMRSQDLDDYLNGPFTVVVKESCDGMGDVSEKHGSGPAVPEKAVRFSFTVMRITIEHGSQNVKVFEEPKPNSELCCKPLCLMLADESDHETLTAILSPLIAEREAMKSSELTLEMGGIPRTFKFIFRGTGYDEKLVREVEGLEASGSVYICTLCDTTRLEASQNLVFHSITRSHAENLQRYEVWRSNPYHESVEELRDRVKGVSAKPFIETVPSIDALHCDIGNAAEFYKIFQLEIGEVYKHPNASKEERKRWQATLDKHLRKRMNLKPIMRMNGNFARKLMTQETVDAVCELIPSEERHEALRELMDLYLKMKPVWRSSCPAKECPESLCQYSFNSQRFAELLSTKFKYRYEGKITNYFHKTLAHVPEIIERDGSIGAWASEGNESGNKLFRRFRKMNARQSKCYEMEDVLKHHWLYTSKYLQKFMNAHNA

T2: WT core mouse RAG1 (aa 384-1008) (mouse), P15919
T2 chain: T1 sequence (looked up)

B1: WT core mouse RAG2 (aa 1-359) (domain or fragment, UniProt P21784 1-359, looked up)
chain: MSLQMVTVGHNIALIQPGFSLMNFDGQVFFFGQKGWPKRSCPTGVFHFDIKQNHLKLKPAIFSKDSCYLPPLRYPATCSYKGSIDSDKHQYIIHGGKTPNNELSDKIYIMSVACKNNKKVTFRCTEKDLVGDVPEPRYGHSIDVVYSRGKSMGVLFGGRSYMPSTQRTTEKWNSVADCLPHVFLIDFEFGCATSYILPELQDGLSFHVSIARNDTVYILGGHSLASNIRPANLYRIRVDLPLGTPAVNCTVLPGGISVSSAILTQTNNDEFVIVGGYQLENQKRMVCSLVSLGDNTIEISEMETPDWTSDIKHSKIWFGSNMGNGTIFLGIPGDNKQAMSEAFYFYTLRCSEEDLSEDQ
B2: mouse RAG2 (aa 1-520), degradation resistant T490A mutant (natural protein, UniProt P21784 1-520, looked up)
chain: MSLQMVTVGHNIALIQPGFSLMNFDGQVFFFGQKGWPKRSCPTGVFHFDIKQNHLKLKPAIFSKDSCYLPPLRYPATCSYKGSIDSDKHQYIIHGGKTPNNELSDKIYIMSVACKNNKKVTFRCTEKDLVGDVPEPRYGHSIDVVYSRGKSMGVLFGGRSYMPSTQRTTEKWNSVADCLPHVFLIDFEFGCATSYILPELQDGLSFHVSIARNDTVYILGGHSLASNIRPANLYRIRVDLPLGTPAVNCTVLPGGISVSSAILTQTNNDEFVIVGGYQLENQKRMVCSLVSLGDNTIEISEMETPDWTSDIKHSKIWFGSNMGNGTIFLGIPGDNKQAMSEAFYFYTLRCSEEDLSEDQKIVSNSQTSTEDPGDSTPFEDSEEFCFSAEATSFDGDDEFDTYNEDDEDDESVTGYWITCCPTCDVDINTWVPFYSTELNKPAMIYCSHGDGHWVHAQCMDLEERTLIHLSEGSNKYYCNEHVQIARALQAPKRNPPLQKPPMKSLHKKGSGKVLTPAKKS
B3: mouse RAG1 (aa 265-1040), catalytically inactive E962Q mutant (enzyme, UniProt P15919 265-1040, looked up)
chain: NCSKIHLSTKLLAVDFPAHFVKSISCQICEHILADPVETSCKHLFCRICILRCLKVMGSYCPSCRYPCFPTDLESPVKSFLNILNSLMVKCPAQDCNEEVSLEKYNHHVSSHKESKETLVHINKGGRPRQHLLSLTRRAQKHRLRELKIQVKEFADKEEGGDVKAVCLTLFLLALRARNEHRQADELEAIMQGRGSGLQPAVCLAIRVNTFLSCSQYHKMYRTVKAITGRQIFQPLHALRNAEKVLLPGYHPFEWQPPLKNVSSRTDVGIIDGLSGLASSVDEYPVDTIAKRFRYDSALVSALMDMEEDILEGMRSQDLDDYLNGPFTVVVKESCDGMGDVSEKHGSGPAVPEKAVRFSFTVMRITIEHGSQNVKVFEEPKPNSELCCKPLCLMLADESDHETLTAILSPLIAEREAMKSSELTLEMGGIPRTFKFIFRGTGYDEKLVREVEGLEASGSVYICTLCDTTRLEASQNLVFHSITRSHAENLQRYEVWRSNPYHESVEELRDRVKGVSAKPFIETVPSIDALHCDIGNAAEFYKIFQLEIGEVYKHPNASKEERKRWQATLDKHLRKRMNLKPIMRMNGNFARKLMTQETVDAVCELIPSEERHEALRELMDLYLKMKPVWRSSCPAKECPESLCQYSFNSQRFAELLSTKFKYRYEGKITNYFHKTLAHVPEIIERDGSIGAWASEGNQSGNKLFRRFRKMNARQSKCYEMEDVLKHHWLYTSKYLQKFMNAHNALKSSGFTMNSKETLGDPLGIEDSLESQDSMEF
B4: mouse RAG1 (aa 265-1040), wild type (enzyme, UniProt P15919 265-1040, looked up)
chain: B3 chain with Q698E
B5: WT core mouse RAG1 (aa 384-1008), P15919 384-1008 (enzyme)
chain: T1 sequence (looked up)

Key:
[1] = target: T1, WT core mouse RAG1 (aa 384-1008); test: crystal structure
[2] = target: B3; test: cryo-EM structure
[3] = target: the molecule itself; test: cryo-EM structure
[4] = target: T2, WT core mouse RAG1 (aa 384-1008) …; test: crystal structure; conditions: remark: other sources report otherwise

Binder: B1
binding result [1]: binds

Binder: B2
binding result [2]: binds

Binder: B3
binding result [3]: binds

Binder: B4
binding result [3]: binds

Binder: B5
stoichiometry N [4]: 2
